Assay results: the DeepSol protein solubility set

experiment: soluble on expression in E. coli; label from the status in PepcDB or PDB records

Question: Which “soluble on expression in E. coli” value does the source give for “LSIPEDYQVRLQPTRVAGSYPLVRLEFTGATVDAPLMTQIARKYNIDVSILSSDLDYAGGVKFGMMVAEIFGNADDDEAAIRYLRENNVKVEVLGYVL” here?
Answer: not soluble

Question: Which “soluble on expression in E. coli” value does the source give for “MKSKFMIHQIFSNYCSKNTRLHTLLYKTFVRPILEYGTEVSSPLKKQDIKAIESVQNSFTRKLYSRQKGKYIRTDDPDYKSAIQRNELFNLSTLEARRKAIDKVFLSKMLVNKVDIDTDQFFKIDKNSKTRTKTKFIWGKCKTKLRRHFFTNRVLSSIKISAMNLILAPHVLCMFNTFTHYSSP” here?
Answer: not soluble

Question: For “MSLHTPLEQQEIRYRKGDIIELTITDHAEKDKCFGKTTEGMGVMVSGILAPGDRVSAQIYKVKSRYLEARAIEVLEASPDRVEPVCPVFGSCGGCKWMHVSYEAQLRYKHKKVTDSLEHIGGFESPDVRPVLAAPDALHYRNKVEFSCSNMRYLLQSEIDSDQLAKPKTFALGFHAPGNFEKVLDLDTCYLAKECMNRVLNVLRDFAIERGLEPYAAKAHEGYLRNLMLRYSERHEQLMVNIVTSWYDKALMQALKERLEAAMPEQQMTLLNNVTTRKNTVATGEQEYVISGDGYVTERLGDLDFRISANSFFQTNTRQAETLYDQIIAVGGITPEDTVYDLYCGTGTITLYLARHCKQAIGIEVVESAVKDAEMNAELNGLSNTVFFQADLKNFHAMQEALEPYAKPRIIVTDPPRAGMHPKALDTMLKLQPERIVYVSCNPDNLARDGKEIAARGYRMTSAQPVDMFPQTNHIETVACFERAEGHHHHHH”, which “soluble on expression in E. coli” value is on record?
Answer: soluble

Question: With “MSFKVKNQSKHLYSLMTKFKRSQLILKHQSNNFASELWNEEDIIRSKQFIELIEDTLLHLKKDTVDFIYDIFIYGKKPCDISYSNSTYYKKLNKAANSFFDHFVWEAPIYKTKELKNDNSHS” as the sequence, how does the “soluble on expression in E. coli” value read?
Answer: soluble

Question: For “MSTFRLITGGIGTGKTLWTVEQLFKLKNLTPDRLVYTDITGIKHTGVTVVPPDFDWRNVEDNSLIIFDEVQYKELFSRHNSKRDKQILDLTTMRKRGIEIWCITQRARFLNQDVLGLVNEHIHLEKTGDKTARVYIWHEAETNITKTKKMFPFEKYVWQHPTDLYGFYESIKPDA”, which “soluble on expression in E. coli” value is on record?
Answer: not soluble

Question: For “MAKMRISPELKKLIEKYRSVKDTEGMSPAKVYKLVGENENLYLKMTDSRYKGTTYDVEREKDMMLWLEGKLPVPKVLHFERHDGWSNLLMSEADGVLCSEEYEDEQSPEKIIELYAECIRLFHSIDISDCPYTNSLDSRLAELDYLLNNDLADVDSENWEEDTPFKDPRELYDFLKTEKPEEELVFSHGDLGDSNIFVKDGKVSGFIDLGRSGRADKWYDIAFCVRSIREDIGEEQYVELFFDLLGIKPDWEKIKYYILLDELF”, which “soluble on expression in E. coli” value is on record?
Answer: soluble

Question: With “GSHMKISEFLHLALPEEQWLPTISGVLRQFAEEECYVYERPPCWYLGKGCQARLHINADGTQATFIDDAGEQKWAVDSIADCARRFMAHPQVKGRRVYGQVGFNFAAHARGIAFNAGEWPLLTLTVPREELIFEKGNVTVYADSADGCRRLCEWVKEASTTTQNAPLAVDTALNGEAYKQQVARAVAEIRRGEYVKVIVSRAIPLPSRIDMPATLLYGRQANTPVRSFMFRQEGREALGFSPELVMSVTGNKVVTEPLAGTRDRMGNPEHNKAKEAELLHDSKEVLEHILSVKEAIAELEAVCLPGSVVVEDLMSVRQRGSVQHLGSGVSGQLAENKDAWDAFTVLFPSITASGIPKNAALNAIMQIEKTPRELYSGAILLLDDTRFDAALVLRSVFQDSQRCWIQAGAGIIAQSTPERELTETREKLASIAPYLMV” as the sequence, how does the “soluble on expression in E. coli” value read?
Answer: soluble

Question: With “MGSDKIHHHHHHMKTTFNLSRFYKACNPSYTLNISNVLDRQYYIDFADVRGCKIVEELQRTIVRISPDEPTCQLFTGHIGCGKSTELQRLKTELELAGFHVVYFESSQDLDMADIDISDILLSVARQVSASLEGINIKLKGGYFTNLFKEVGDFLQSPIELSGQAELSLGIAKITAKTKDSTQMRNQLRQYLEPRTNSILQAINEEILERAVEQLKLRGQKGLVVIVDNLDRVDMRPLASGRSQPEYLFIDRGEQLRRLKCHLVYTIPLTLIFSNEYETLKNRLGGGIAPKVLPMVLVRQRDGSDYEPGMSLVRQLVLARAFPEVSLNERLLLITELFDHSQTLDRICRVSGGHIRNLLGLLYSCLQRQDPPFSRECLEAVIKDYRDDLLLAIDESQWELLFEVVQQQRVKGESDYQSLLRSMYLFEYRDPLGRWFGISPALAETEKVLAWQQKK” as the sequence, how does the “soluble on expression in E. coli” value read?
Answer: not soluble

Question: For “ALSPPRRKSFKKWTPPRSPFNLVQEILFHDPWKLLIATIFLNRTSGKMAIPVLWEFLEKYPSAEVARAADWRDVSELLKPLGLYDLRAKTIIKFSDEYLTKQWRYPIELHGIGKYGNDSYRIFCVNEWKQVHPEDHKLNKYHDWLWENHEKLSLS”, which “soluble on expression in E. coli” value is on record?
Answer: soluble

Question: Which “soluble on expression in E. coli” value does the source give for “MGRMIDGDWRTEADMNEHSDDGAFERDTTSFRHWVGDDVPPAAGRYHLYVSYACPWAHRTLLVRALLGLEDAISVSVVDPVRYDQGWTFDPEKPGCTPDHVFGGTHLRDVYTEADPEYTGRVTVPVLYDTDADTIVNNESEEIMRMLDVAFDDHAARDVDLYPEGYRDEVDRLIEDIYDPINNGVYRAGFADSQRAYDNAVDDLFEALAHYDDVLAEQRYLAGDVLTEADVAMFTTLYRFDEVYHTHFKCNRKRISDYDNLWPYLRELCQLPGVADTLYMEHVKQHYYRSHGHLNPKRLVPTGPNPAFFAPHDRDQLEHHHHHH” here?
Answer: not soluble

Question: For “MSLNSAAQAQSSDPVVIGCPAPLTGIVAADGIEFQRGIQMAADEINAVGGILGRPIELVFADTQSKGVDVVIQSAQRLIDRDNASALIAGYNLENGTALHDVAADAGVIAMHANTVAVHDEMVKSDPDRYWGTFQYDPPETLYGGGFLKFLKDIEDNGEFSRPNNKIAIITGPGIYSVNIANAIRDGAGEYGYDVSLFETVAIPVSDWGPTLAKLRADPPAVIVVTHFYPQDQALFMNQFMTDPTNSLVYLQYGASLAAFRDIAGDNSVGVTYATVLGTLQDEMGDAFAKAYKERYGDLSSTASGCQTYSALYAYSIAAALAGGPGAPYDDVQNKAVADRLRSLIFRGPVGTMRFHADTQSAWSYPTETNDPSLGMPHIFSQIFDKAEDGVLIAPAPYKKAGFKMPPWMKGEGHHHHHH”, which “soluble on expression in E. coli” value is on record?
Answer: soluble

Question: With “MSLKVFVTGATGFIGASIARELLKDGCHVRVLARPGSDRRNLDGLDVEVCEGDLCSPESLDRGVKGCEVLYHAAADYRLWTRNPAAMYAANVEGTRHVLDAALRHGVSRVVYTSSVGTLGNPGDGTPGTEATPVTFADMVGDYKKSKFLAEREAETFLARGLPLVIVNPSTPVGPHDVKPTPTGKIIVDFLNRAMPAYLDTGLNIIDVEDCAQGHILAAQHGRIGEKYILGHENLTLRQIFSLLETVTGLAAPKVRLPYLPILAAAYANEALSRITGREPLIPLAGVQMARKFMYFDSSKAVKELGLPQRPAVEALGRAVEWFRANGYVREGHHHHHH” as the sequence, how does the “soluble on expression in E. coli” value read?
Answer: soluble

Question: For “MTDVKTQNAISLKGSAQLVKEFFHFGLNSILYQRALYPSDSFKREKKYGLTLWVAHEKKLQAFMDPLLQQVEYWLAKRQLKRLVMVISEVKTKEVVERWQFDIHTENLAEEGYEIV”, which “soluble on expression in E. coli” value is on record?
Answer: not soluble

Question: For “MDNQKRPFTTRFDHYNYNVLNLERSLAFYDRAFGFREVKRKEAADGSFILVYLGDVYGHFLLELTWLRDRKEPYNLGENEVHLCVRTTGDYDAVREYHRAMGCICYENEQMGLYFVNDPDGYWIEVLPENRD”, which “soluble on expression in E. coli” value is on record?
Answer: not soluble

Question: With “KGDFVFKPYLLVQTCANFNWYDDEGLDKAYNQDNVANSGFSIPYAVLGFTGKAFGKVAFNLSINAAASGGALLQQAWFDVQLKKQFAVRVGKFKTPFSHAYLTTLGETLLPQLPVSLTSAIILPYSLNAVTPNIGTGFDLGVEIHGLLADKFGYEVGLFNGTGSSVNTATKTLSDDWHIPSLLYAGRFTYMPKGVMPSTQGNPNRLNEDKIMFGVSASINVESENESTNDTRVGVEFAMLKNKLYLGAEAYYMNVGFTDRQKINETYNYLGGYVQGGYFVAPRLQAALRYDFFNRNGTSDDGFLNMPAVGVNYFFKGCNLKLQAMYQYIARTGHDTQLDRDNDNLGLATHSATVMLQYTF” as the sequence, how does the “soluble on expression in E. coli” value read?
Answer: not soluble

Question: With “HERRTVLAEWSIGIDIGGTFTDLVALDYAGGKLHSLKMLTTYDDPSLAVMEGVRQLMATCGIAASEVGRVVHATTLFTNALISRAGARTGLLCNQGFMDAIEIGNERKYDLYDLAIDRPPPLVPRDLRREIPGRLDAHGNELEPLDRQAVVAMARSLADAGATSIAVCLLHAYASPRHEQQVHAWIRQAL” as the sequence, how does the “soluble on expression in E. coli” value read?
Answer: not soluble

Question: With “MIAVSFKCRCQILRRLTKDESPYTKSASQTKPPDGALAVRRQSIPEEFKGSTVVELMKKEGTTLGLTVSGGIDKDGKPRVSNLRQGGIAARSDQLDVGDYIKAVNGINLAKFRHDEIISLLKNVGERVVLEVEYELPPVSVQGSSVIFRTVEVTLHKEGNTFGFVIRGGAHDDRNKSRPVVITCVRPGGPADREGTIKPGDRLLSVDGIRLLGTTHAEAMSILKQCGQEAALLIEYDVSVMDSVATASGPLLVEVAKTPGASLGVALTTSMCCNKLVIVIDKIKSASIADRCGALHVGDHILSIDGTSMEYCTLAEATQFLANTTDQVKLEILPHHQTRLALKGPDHAALVSSSFSPTSMSAYSLSSLNMGTLPRSLYSTSPRGTMMRRRLKKKDFKSSLSLASSTVGLAGQVVHTETTEVVLTADPVTGFGIQLQGSVFATETLSSPPLISYIEADSPAERCGVLQIGDRVMAINGIPTEDSTFEEASLLLRDSSITSKVTLEIEFDVAESVIPSSGTFHVKLPKKHNVELGITISSPSSRKPGDPLVISDIKKGSVAHRTGTLELGDKLLAIDNIRLDNCSMEDAVQILQQCEDLVKLKIRKDEDNSDEQESSGAIIYTVELKRYGGPLGITISGTEEPFDPIIISSLTKGGLAERTGAIHIGDRILAINSSSLKGKPLSEAIHLLQMAGETVTLKIKKQTDAQSASSPKKFPISSHLSDLGDVEEDSSPAQKPGKLSDMYPSTVPSVDSAVDSWDGSAIDTSYGTEGTSFQASGYNFNTYDWRSPKQRGSLSPVTKPRSQTYPDVGLSYEDWDRSTASGFAGAADSAETEQEENFWSQALEDLETCGQSGILRELEATIMSGSTMSLNHEAPTPRSQLGRQASFQERSSSRPHYSQTTRSNTLPSDVGRKSVTLRKM” as the sequence, how does the “soluble on expression in E. coli” value read?
Answer: soluble

Question: With “MSLADVQQFPESIAELVPKFHVLKLPMVTRFRSITEREVMLFEGPDGWAEFSPFTEYGSVESSRWLQAALEFAGLLPTAEVEPSAVGSAAETVGQSVAVNATLPACATSEVGPILARYGPVGTVKAKVAEHGIDSLPEDWDRLREFRRLFPETTLRLDANAGYALPEALAACTEFAEFDLQYFEQPVAAVEDMARLREQLSARELPVVLAADESIRKAEDPVRVAELGAAEVVIVKVQPLGGIAAARSVLEACGLPAVVSSALESSVGLAAGAQLAATLPRTQRSRELLGEHPACGLGTGRLFAEDVVEPAQSLRPVDGQIPVTRIVPDPQRLETLAVDPGRFDWWEKRLQECWTALLSRRSEGHHHHHH” as the sequence, how does the “soluble on expression in E. coli” value read?
Answer: not soluble

Question: With “MAICKVFRNYCKENDIQLHQANFSLSYDTNIPRQTGLSGSSAIVSAALNCLLDFYNVRHLIKVQVRPNIVLSAEKELGIVAGLQDRVAQVYGGLVHMDFSKEHMDKLGHGIYTPMDISLLPPLHLIYAENPSDSGKVHSMVRQRWLDGDEFIISSMKEVGSLAEEGRTALLNKDHSKLVELMNLNFDIRRRMFGDECLGAMNIEMVEVARRVGAASKFTGSGGAVVVFCPEGPSQVKLLEEECRKAGFTLQPVKIAPSCLNDSDIQTL” as the sequence, how does the “soluble on expression in E. coli” value read?
Answer: not soluble

Question: With “QSIVVDMREFRSELPSLIHRRGIDIEPVTLEVGDYILTPEMCVERKSISDLIGSLNNGRLYSQCISMSRYYKRPVLLIEFD” as the sequence, how does the “soluble on expression in E. coli” value read?
Answer: not soluble

Question: For “MSTPRIEHYTTDVHAHWEGIHPQDWAEVDLIGYENAMDKMYRTLCENPDAALVQVGHRSKLLNDHGSDYRFNGKFTSEQTKPERSHHDYNHFGKLMKWEGDRWYKYDFEVEVTDHTRSE”, which “soluble on expression in E. coli” value is on record?
Answer: not soluble
